Data as given in publication PMC9581112.

Molecular target: Pyruvate kinase M2 (PKM2) (human (endogenous in MDA-MB-231 and MCF-7)) (UniProt P14618)
Test: native gel or EMSA

Sequence of Pyruvate kinase M2 (PKM2), P14618 1-531 (enzyme; other documents disagree on this pair) (P14618 whole entry): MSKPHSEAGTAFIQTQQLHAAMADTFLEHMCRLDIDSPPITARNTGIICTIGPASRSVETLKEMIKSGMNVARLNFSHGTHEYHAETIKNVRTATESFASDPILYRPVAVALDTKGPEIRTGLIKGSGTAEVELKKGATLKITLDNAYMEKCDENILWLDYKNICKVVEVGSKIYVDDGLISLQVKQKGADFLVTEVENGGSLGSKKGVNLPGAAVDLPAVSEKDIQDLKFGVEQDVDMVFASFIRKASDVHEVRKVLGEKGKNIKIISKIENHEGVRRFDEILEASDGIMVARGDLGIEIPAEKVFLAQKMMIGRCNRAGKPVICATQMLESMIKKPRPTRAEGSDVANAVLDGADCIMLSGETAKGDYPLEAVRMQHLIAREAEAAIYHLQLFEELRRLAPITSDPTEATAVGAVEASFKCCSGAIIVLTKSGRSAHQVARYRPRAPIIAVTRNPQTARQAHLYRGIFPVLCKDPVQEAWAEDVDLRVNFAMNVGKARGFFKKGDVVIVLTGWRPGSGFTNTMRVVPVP

“Pyruvate kinase M2 (PKM2), P14618 1-531 (enzyme; other documents disagree on this pair)” gave a stoichiometry N of 2.
